Data from the supplement of paper PMC6757056.
± gives the standard deviation of the averaged measurements.

B1: library; a variant is named by its letters at N, in order (parent)
chain: GCUGUCACCGGUGUAUUACCCUAGUGGUCGACCGGUCUGAUGAGUCUNNNNNNAGACGAAACAGC

What was measured:
[1] = variants of: B1; test: normalized RNA/DNA level with ligand (relative to sTRSVctl = 100) (log10 (% of sTRSVctl)); ligand: hypoxanthine (xanthine aptamer); higher = less ribozyme self-cleavage, higher mRNA level; conditions: ligand concentration (+) RNA-Seq: 5 mM, HEK293T, reporter: mCherry (pCS4076), ligand present: yes
Outline: (§1)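 For each 6-well well, 4 µg of library plasmid encoding mCherry-linked ribozyme switches, or eGFP-linked ones in some ligand experiments, was transfected into HEK293T. Any ligand was added 1 h before transfection, and RNA was extracted with EDTA 72 h after it, then reverse-transcribed, amplified, barcoded and sequenced. RNA level was obtained by dividing RNA reads by DNA reads, normalizing to a spiked-in non-cleaving sequence or to the top sequences, then scaling and log-transforming. The top set was 25 sequences, scaling was ×100 with log10, and ≥100 DNA reads were required.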

[2] = variants of: B1; test: normalized RNA/DNA level without ligand (relative to sTRSVctl = 100) (log10 (% of sTRSVctl)); ligand: hypoxanthine (xanthine aptamer); higher = less ribozyme self-cleavage, higher mRNA level; conditions: HEK293T, reporter: mCherry (pCS4076), ligand present: no
Outline: as §1

Variant	normalized RNA/DNA level with ligand (log10) [1]	normalized RNA/DNA level without ligand (log10) [2]
ACAGGC	1.89 ± 0.1	1.72 ± 0.038
GCACAC	1.9 ± 0.042	1.63 ± 0.057
GCACAU	1.96 ± 0.033	1.76 ± 0.037
UCAAUA	1.91 ± 0.049	1.76 ± 0.021
UCAAUG	1.85 ± 0.035	1.702 ± 0.0043
UCAAUU	1.96 ± 0.0097	1.89 ± 0.023
GCAUAC	1.904 ± 0.014	1.62 ± 0.049
GCAUAG	1.862 ± 0.011	1.43 ± 0.078
CCAAGG	1.83 ± 0.036	1.603 ± 0.013
CCAAGA	1.945 ± 0.0033	1.82 ± 0.034
GCAUUA	1.92 ± 0.023	1.877 ± 0.01
GCAUUC	2 ± 0.023	1.81 ± 0.047
GCAUUU	1.922 ± 0.019	1.88 ± 0.042
ACAAUC	1.9924 ± 0.0011	1.93 ± 0.025
ACAAUU	1.939 ± 0.019	1.736 ± 0.0095
ACCAGC	1.993 ± 0.0011	1.94 ± 0.043
ACCAGA	1.952 ± 0.009	1.77 ± 0.024
ACAAGU	1.88 ± 0.032	1.564 ± 0.013
UAUGUU	1.94 ± 0.06	1.85 ± 0.049
UAUGUA	1.906 ± 0.0084	1.837 ± 0.0025
CCCAGG	1.934 ± 0.018	1.83 ± 0.019
CCCAGA	1.93 ± 0.048	1.83 ± 0.046
CCCAGC	1.999 ± 0.0073	1.877 ± 0.013

Variant	normalized RNA/DNA level with ligand (log10) [1]	normalized RNA/DNA level without ligand (log10) [2]
ACAGAC	1.92 ± 0.078	1.838 ± 0.0042
ACAGAA	1.922 ± 0.012	1.7472 ± 0.0012
UCAUUA	1.927 ± 0.0081	1.884 ± 0.0033
UCAUUG	1.91 ± 0.026	1.72 ± 0.043
UCAUUC	2.0015 ± 0.00059	1.9887 ± 0.00019
UCACAC	1.94 ± 0.088	1.741 ± 0.015
UCACAA	1.92 ± 0.061	1.75 ± 0.019
UCACAG	1.87 ± 0.033	1.56 ± 0.056
GCCACU	1.99 ± 0.065	1.965 ± 0.0028
GCCACA	1.958 ± 0.0033	1.871 ± 0.0054
GCCACG	1.905 ± 0.0023	1.656 ± 0.0069
GCCACC	1.905 ± 0.011	1.834 ± 0.0019
ACCACG	1.91 ± 0.032	1.67 ± 0.023
ACCACC	2.012 ± 0.02	1.927 ± 0.0086
ACCACU	1.96 ± 0.023	1.92 ± 0.048
ACCACA	1.94 ± 0.044	1.902 ± 0.0069
UAUUGC	1.94 ± 0.038	1.841 ± 0.0096
UAUUGA	1.901 ± 0.016	1.74 ± 0.021
CCAUCU	2.036 ± 0.0026	1.951 ± 0.015
CCAUCG	1.91 ± 0.024	1.79 ± 0.019
CCAUCC	2 ± 0.087	1.975 ± 0.015
CCAUCA	1.97 ± 0.056	2.01 ± 0.049
AAUGUC	1.98 ± 0.064	1.921 ± 0.0048

Variant	normalized RNA/DNA level with ligand (log10) [1]	normalized RNA/DNA level without ligand (log10) [2]
AAUUGU	1.93 ± 0.004	1.705 ± 0.013
AAUUGC	1.905 ± 0.013	1.82 ± 0.046
GCAGCG	1.97 ± 0.028	1.62 ± 0.042
GCAGCU	2.014 ± 0.019	1.95 ± 0.038
UAUUCU	1.96 ± 0.079	1.88 ± 0.035
UAUUCG	1.929 ± 0.0088	1.74 ± 0.072
UAUUCC	1.95 ± 0.023	1.852 ± 0.012
ACACGC	1.94 ± 0.033	1.71 ± 0.03
GCAACG	1.9 ± 0.031	1.595 ± 0.0074
GCAACC	1.93 ± 0.052	1.82 ± 0.03
GCAACU	1.97 ± 0.042	1.96 ± 0.028
UCACUU	1.93 ± 0.043	1.88 ± 0.025
UCACUA	1.92 ± 0.051	1.83 ± 0.088
UCACUC	1.99 ± 0.02	2.03 ± 0.026
CAUUAG	1.941 ± 0.019	1.73 ± 0.054
CAUUAC	1.9 ± 0.046	1.82 ± 0.0041
ACAUAU	1.89 ± 0.072	1.6935 ± 0.0011
ACAUAC	1.94 ± 0.034	1.823 ± 0.015
CAUUUU	1.973 ± 0.0049	1.804 ± 0.0085
CAUUUG	1.98 ± 0.1	1.9 ± 0.049
CCAGUU	2.01 ± 0.029	1.928 ± 0.0095
CCAGUG	1.93 ± 0.051	1.69 ± 0.077
CCAGUC	1.99 ± 0.038	1.974 ± 0.0045

Variant	normalized RNA/DNA level with ligand (log10) [1]	normalized RNA/DNA level without ligand (log10) [2]
CCAGUA	1.94 ± 0.054	1.85 ± 0.038
GCACCC	1.86 ± 0.021	1.78 ± 0.035
GCACCA	1.939 ± 0.016	1.88 ± 0.023
GCACCG	1.89 ± 0.023	1.62 ± 0.058
GCAUGU	1.9 ± 0.03	1.68 ± 0.043
GCAUGA	1.94 ± 0.042	1.71 ± 0.029
UAUUAG	1.873 ± 0.0072	1.6759 ± 0.00016
ACAUGC	1.914 ± 0.015	1.77 ± 0.024
CCAUUA	1.929 ± 0.017	1.84 ± 0.039
CCAUUU	1.91 ± 0.021	1.86 ± 0.066
CCAUUG	1.9 ± 0.056	1.8 ± 0.022
AAUUAU	1.92 ± 0.026	1.82 ± 0.022
CCACAC	1.93 ± 0.067	1.777 ± 0.015
CCACAA	1.9686 ± 0.0014	1.8 ± 0.033
CCACAU	1.92 ± 0.11	1.79 ± 0.049
CCACAG	1.92 ± 0.04	1.66 ± 0.059
UCAGCU	1.99 ± 0.03	1.948 ± 0.014
UCAGCC	2.04 ± 0.02	1.997 ± 0.0026
UCAGCA	1.99 ± 0.021	1.88 ± 0.03
CCAAUU	1.924 ± 0.016	1.85 ± 0.028
CCAAUC	1.98 ± 0.032	1.94 ± 0.044
CCAAUA	1.899 ± 0.0083	1.8 ± 0.032
ACAACA	1.92 ± 0.028	1.85 ± 0.022

Variant	normalized RNA/DNA level with ligand (log10) [1]	normalized RNA/DNA level without ligand (log10) [2]
ACAACC	1.91 ± 0.04	1.91 ± 0.013
ACAACU	1.885 ± 0.018	1.83 ± 0.037
ACAACG	1.89 ± 0.047	1.49 ± 0.021
GCAGAC	1.89 ± 0.021	1.549 ± 0.0076
GCAUCA	1.94 ± 0.041	1.89 ± 0.035
GCAUCC	1.86 ± 0.069	1.82 ± 0.025
GCAUCU	1.98 ± 0.039	1.87 ± 0.004
UCAGAU	1.96 ± 0.037	1.76 ± 0.066
UCAGAA	1.9 ± 0.044	1.665 ± 0.0042
UCAGAG	1.9 ± 0.046	1.58 ± 0.066
UCAGAC	1.964 ± 0.0055	1.92 ± 0.042
ACAGUA	1.908 ± 0.015	1.76 ± 0.029
ACAGUG	1.85 ± 0.039	1.35 ± 0.021
ACAUCC	1.98 ± 0.049	1.931 ± 0.0044
ACAUCA	1.96 ± 0.046	1.91 ± 0.029
ACAUCU	1.97 ± 0.024	1.87 ± 0.073
CCAGCA	1.966 ± 0.019	1.87 ± 0.043
CCAGCU	1.99 ± 0.097	1.94 ± 0.045
CCAGCG	1.917 ± 0.0021	1.82 ± 0.038
CCAGAU	1.9387 ± 0.00089	1.8 ± 0.057
CCAGAC	1.954 ± 0.0047	1.877 ± 0.011
ACAUUA	1.926 ± 0.0045	1.85 ± 0.036
ACAUUG	1.91 ± 0.057	1.53 ± 0.043
